From patent publication US10870693B2, “Therapeutic combination and methods of treatment with a DLL4 antagonist and an anti-hypertensive agent” (OncoMed Pharmaceuticals, Inc., priority 2009, dated 2020)
Structures can show the parent of a compound that is named as a salt.

Experiments:
[1] = Phase 1 study of OMP-21M18: blood pressure readings and anti-hypertensive treatment of individual subjects
Method: For study days in which an infusion of OMP-21M18 was administered, blood pressure readings include a reading pre-infusion, 15 minutes after the start of infusion, at the end of infusion, and 15 minutes post-infusion.
OMP-21M18 was administered at dosages of 0.5 mg/kg weekly to three subjects, 1.0 mg/kg weekly to three subjects, 2.5 mg/kg every two weeks to six subjects, 2.5 mg/kg weekly to six subjects, 5.0 mg/kg every two weeks to six subjects, 5.0 mg/kg weekly to three subjects, and 10.0 mg/kg every two weeks to six subjects. According to the study protocol, the administration period was nine weeks, unless a subject was removed from the study due to a dose limiting toxicity. Baseline blood pressure readings were taken just prior to administration of the first dosage. Toxicities were assessed using the National Institute of Health's Common Toxicity Criteria for Adverse Events (CTCAE) version 3.0. During the study, subjects were assessed for dose limiting toxicities from the time of the first dose through 7 days after administration of the fourth dose (Days 0-28).

[2] = Phase 1 dose escalation study of OMP-21M18 in subjects with solid tumors: incidence of hypertension (CTCAE v3.0); format: in vivo; conditions: for Grade 3 Hypertension / Grade 4 Hypertension: number of patients
Method: Thirty-three subjects with advanced solid tumors initiated treatment with OMP-21M18 in a Phase I clinical trial. The trial was designed to determine the maximum tolerated dose (MTD), safety, pharmacokinetics, immunogenicity, and preliminary efficacy of OMP-21M18 in subjects with advanced solid tumors. All subjects had histologically confirmed malignancies that were metastatic or unresectable and had received extensive treatment for their cancer.
OMP-21M18 was prepared for use at a concentration of 10 mg/mL in a solution of 50 mM histidine, 100 mM sodium chloride, 45 mM sucrose, and 0.01% (w/v) Polysorbate 20, with the pH adjusted to 6.0. Once prepared, OMP-21M18 was stored as 20 mL aliquots in 25-cc vials.

[3] = Subject 2 on OMP-21M18 1 mg/kg, labetalol 400 bid, lasix 20 mg qd, Norvasc 10 mg qd, Prinzide 20/25 mg together, 7 additional OMP-21M18 doses without hypertension
[4] = Subject 1 on OMP-21M18 0.5 mg/kg weekly, Lotensin, Norvasc and hydrochlorothiazide together
[5] = 2.5 mg/kg every 2 weeks, 6 patients
[6] = 5.0 mg/kg every 2 weeks, 6 patients
[7] = 10.0 mg/kg every 2 weeks, 6 patients, one patient had both Grade 3 and Grade 4

CC(CCc1ccccc1)NCC(O)c1ccc(O)c(C(N)=O)c1 (centres unmarked) [labetalol, reference compound]
blood pressure control by anti-hypertensive regimen [1, 3]: controlled their blood pressure

NS(=O)(=O)c1cc2c(cc1Cl)NCNS2(=O)=O [hydrochlorothiazide, reference compound]
blood pressure control by anti-hypertensive regimen [1, 4]: adequate blood pressure control

CCOC(=O)C1=C(COCCN)NC(C)=C(C(=O)OC)C1c1ccccc1Cl (centres unmarked) [Norvasc®, amlodipine besylate, reference compound]
blood pressure control by anti-hypertensive regimen [1, 4]: adequate blood pressure control
blood pressure control by anti-hypertensive regimen [1, 3]: controlled their blood pressure
adverse event leading to discontinuation of anti-hypertensive ([1]; Subject 3 on OMP-21M18 2.5 mg/kg, Norvasc 5 mg qd, discontinued Day 141): ankle edema

NS(=O)(=O)c1cc(C(=O)O)c(NCc2ccco2)cc1Cl [lasix, reference compound]
blood pressure control by anti-hypertensive regimen [1, 3]: controlled their blood pressure

CCOC(=O)[C@H](CCc1ccccc1)N[C@H]1CCc2ccccc2N(CC(=O)O)C1=O [Lotensin®, benazepril hydrochloride, reference compound]
blood pressure control by anti-hypertensive regimen [1, 4]: adequate blood pressure control

B1: OMP-21M18: humanized anti-DLL4 antibody encoded by the plasmid with ATCC deposit number PTA-8425 (antibody, V domains shown)
VH: QVQLVQSGAEVKKPGASVKISCKASGYSFTAYYIHWVKQAPGQGLEWIGYISSYNGATNYNQKFKGRVTFTTDTSTSTAYMELRSLRSDDTAVYYCARDYDYDVGMDYWGQGTLVTVSS
VL: DIVMTQSPDSLAVSLGERATISCRASESVDNYGISFMKWFQQKPGQPPKLLIYAASNQGSGVPDRFSGSGSGTDFTLTISSLQAEDVAVYYCQQSKEVPWTFGGGTKVEIK
modifications: Heavy chain variable region, H7; Light chain variable region
blood pressure, highest reported ([1]; Subject 1, 0.5 mg/kg weekly, Day 21, 15 minutes post infusion, baseline 135/73, on Lotensin 30 mg qd): 199/92
blood pressure ([1]; Subject 1, 0.5 mg/kg weekly, Day 24, baseline 135/73, on Lotensin 30 mg qd): 183/89
blood pressure ([1]; Subject 1, 0.5 mg/kg weekly, Day 32, on Lotensin 40 mg qd and Norvasc 5 mg qd): 177/88
blood pressure ([1]; Subject 1, 0.5 mg/kg weekly, Day 41, on Lotensin 40 mg qd and Norvasc 10 mg qd): 160/85
blood pressure ([1]; Subject 2, 1 mg/kg weekly, Day 7 (high), baseline 141/85, on lisinopril 10 mg qd): 177/93
blood pressure ([1]; Subject 2, 1 mg/kg weekly, Day 14, on lisinopril plus irbesartan/hydrochlorothiazide, study drug dose not administered): 173/110
blood pressure ([1]; Subject 2, 1 mg/kg weekly, Day 21, on labetalol 100 mg bid and Prinzide 10/12.5 qd): 164/112
blood pressure ([1]; Subject 2, 1 mg/kg weekly, Day 55, on labetalol 400 mg bid and Prinzide 10/12.5 qd): 163/91
blood pressure ([1]; Subject 2, 1 mg/kg, Day 84, on labetalol 400 mg bid and Prinzide 20/25 qd, OMP-21M18 dose not administered): 167/102
blood pressure ([1]; Subject 3, 2.5 mg/kg weekly, Day 21, baseline 96/54, no prior history of hypertension): 159/90
blood pressure ([1]; Subject 3, 2.5 mg/kg, Day 112, on Dyazide 1 po qd): 152/77
blood pressure ([1]; Subject 3, 2.5 mg/kg, Day 146, on lisinopril 20 mg bid): 143/85
blood pressure ([1]; Subject 4, 2.5 mg/kg cohort, Day 14, baseline 118/73, on dyazide and lisinopril, increase not related to study drug according to the Investigator): 153/79
blood pressure ([1]; Subject 5, 10 mg/kg once every other week, Day 9, baseline 130/90): 160/90
blood pressure ([1]; Subject 5, 10 mg/kg once every other week, Day 26, at home, on lisinopril 5 mg qd): 170/90
blood pressure ([1]; Subject 5, 10 mg/kg once every other week, Day 62, on lisinopril 10 mg bid): 190/120
blood pressure ([1]; Subject 5, 10 mg/kg once every other week, Day 65, on lozartan 25 mg, bisoprolol 2.5 mg, amlodipine 5 mg qd): 170/106
blood pressure ([1]; Subject 6, 10 mg/kg cohort, Day 28, single reading, on enalapril): 150/90
blood pressure ([1]; Subject 6, 10 mg/kg cohort, subsequent reading after Day 28, on enalapril): 150/90
blood pressure ([1]; Subject 6, 10 mg/kg cohort, subsequent to start of enalapril 10 mg bid on Day 9, baseline 125/90): 140/90
blood pressure ([1]; Subject 7, 10 mg/kg once every other week, Day 9, baseline 135/90, on enalapril 5 mg bid): 170/90
blood pressure ([1]; Subject 7, 10 mg/kg once every other week, Day 56, on enalapril 10 mg bid): 155/90
blood pressure ([1]; Subject 8, 10 mg/kg once every other week, Day 17, home reading, baseline 140/90, captopril 25 mg as needed): 160/90
blood pressure ([1]; Subject 8, 10 mg/kg once every other week, Day 22, in the clinic, on captopril 12.5 qd): 130/80
blood pressure ([1]; Subject 8, 10 mg/kg once every other week, Days 23-28, at home, on captopril 12.5 qd): 150/90
blood pressure ([1]; Subject 9, 10 mg/kg once every other week, Day 7, on nifedipine 20 mg qd): 130/80
blood pressure ([1]; Subject 9, 10 mg/kg once every other week, Day 74, on nifedipine 20 mg qd, then discontinued): 115/75
Total Incidence of Hypertension ([2]; 0.5 mg/kg weekly, 3 patients): 1/3
Grade 3 Hypertension ([2]; 0.5 mg/kg weekly, 3 patients): 1
Grade 4 Hypertension ([2]; 0.5 mg/kg weekly, 3 patients): 0
Total Incidence of Hypertension ([2]; 1.0 mg/kg weekly, 3 patients): 1/3
Grade 3 Hypertension ([2]; 1.0 mg/kg weekly, 3 patients): 1
Grade 4 Hypertension ([2]; 1.0 mg/kg weekly, 3 patients): 0
Total Incidence of Hypertension [2, 5]: 1/6
Grade 3 Hypertension [2, 5]: 1
Grade 4 Hypertension [2, 5]: 0
Total Incidence of Hypertension ([2]; 2.5 mg/kg weekly, 6 patients): 2/6
Grade 3 Hypertension ([2]; 2.5 mg/kg weekly, 6 patients): 2
Grade 4 Hypertension ([2]; 2.5 mg/kg weekly, 6 patients): 0
Total Incidence of Hypertension [2, 6]: 1/3
Grade 3 Hypertension [2, 6]: 1
Grade 4 Hypertension [2, 6]: 0
Total Incidence of Hypertension ([2]; 5.0 mg/kg weekly, 3 patients): 0/3
Grade 3 Hypertension ([2]; 5.0 mg/kg weekly, 3 patients): 0
Grade 4 Hypertension ([2]; 5.0 mg/kg weekly, 3 patients): 0
subjects who experienced Grade 3 or Grade 4 hypertension ([2]; 10.0 mg/kg dose level): 6 of 6
Total Incidence of Hypertension ([2]; 10.0 mg/kg every 2 weeks, 6 patients): 6/6
Grade 3 Hypertension [2, 7]: 6
Grade 4 Hypertension [2, 7]: 1
subjects whose hypertension was labeled grade three ([2]; of the twelve subjects with hypertension, asymptomatic, controlled with oral anti-hypertensive, treatment continued): eleven
subjects for whom hypertension was reported during the course of therapy ([2]; of thirty-three subjects, all dose cohorts): twelve
patients with hypertension reported ([2]; thirty-three subjects, all dose cohorts): 36%
